Measurements: article PMC2896269 (The Journal of neuroscience : the official journal of the …, 2010)

Biological target: HA-neuroligin-1(+B) (UniProt Q62765 46-843)
Experiment: immunostaining of cells or tissue

HA-neuroligin-1(+B), sequence (Q62765 46-843): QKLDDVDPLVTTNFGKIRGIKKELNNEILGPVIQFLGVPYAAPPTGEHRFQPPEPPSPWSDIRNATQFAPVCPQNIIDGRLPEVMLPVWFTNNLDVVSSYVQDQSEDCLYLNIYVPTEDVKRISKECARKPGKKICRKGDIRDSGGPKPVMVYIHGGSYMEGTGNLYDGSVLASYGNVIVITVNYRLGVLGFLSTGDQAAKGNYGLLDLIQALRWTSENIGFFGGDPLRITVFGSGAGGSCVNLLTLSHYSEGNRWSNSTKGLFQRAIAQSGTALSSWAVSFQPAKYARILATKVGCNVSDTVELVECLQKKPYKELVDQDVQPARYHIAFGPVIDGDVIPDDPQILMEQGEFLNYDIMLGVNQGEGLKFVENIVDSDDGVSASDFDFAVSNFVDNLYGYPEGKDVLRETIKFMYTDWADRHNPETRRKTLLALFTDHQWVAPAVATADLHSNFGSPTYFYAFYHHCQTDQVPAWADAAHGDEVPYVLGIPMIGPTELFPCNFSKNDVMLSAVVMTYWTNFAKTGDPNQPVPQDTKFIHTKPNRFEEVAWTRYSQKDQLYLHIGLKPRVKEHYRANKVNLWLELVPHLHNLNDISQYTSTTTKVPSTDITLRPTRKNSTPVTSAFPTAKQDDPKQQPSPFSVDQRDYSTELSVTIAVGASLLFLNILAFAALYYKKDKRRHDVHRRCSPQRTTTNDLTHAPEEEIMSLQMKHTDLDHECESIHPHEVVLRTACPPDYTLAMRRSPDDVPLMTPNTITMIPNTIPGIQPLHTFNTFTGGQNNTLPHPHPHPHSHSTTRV

Kd: 26.9 nM
B1: Nrx1β(+S4)-Fc (Fc fusion)
chain: not shown
